In the supplement of paper PMC9732359 one finds protein stability index data, which are given here for 26 sequences.

± gives the uncertainty stated by the source.

The nature of the series: protein stability index of a GFP-peptide fusion (yeast GPS) (PSI 1-4); higher = more stable; sorted into four equal gates, so the index is relative within each strain. A digest of the protocol:
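Sequencing reads from sorted gates were used to score each peptide. The library consisted of tiled 17-residue yeast protein peptides fused downstream of GFP on a Cherry-expressing plasmid, pooled and carried in yeast. Mid-log cultures in leucine-free medium were split into four equal gates by GFP/Cherry ratio, and each gate's plasmids were PCR-amplified and Illumina-sequenced. The protein stability index adds up, over all gates, the read frequency multiplied by the gate number.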

Take FDKKSFFNGKALNNAIP [PRP8]: the protein stability index is 2.06 ± 0.08 (doa10∆), 1.91 ± 0.051 (pdr5∆), 1.98 ± 0.15 (san1∆) and 1.92 ± 0.052 (ubr1∆).
Taken in the same sequence, the figures for FDNKSTSEEQEALLRSL [SNF2] were 3.32 ± 0.072, 3.6 ± 0.18, 2.68 ± 0.26 and 2.73 ± 0.2.
On the same counts, the results for FEGNVATKAINGCIFTL [PRP8] are 2.57 ± 0.068, 2.32 ± 0.049, 1.97 ± 0.053 and 2.71 ± 0.05.
As for FEIDGDVIHFEDSSILQ [PCI8], the protein stability index runs as follows: (doa10∆) 3.15 ± 0.083; (pdr5∆) 3.46 ± 0.072; (san1∆) 3.04 ± 0.066; (ubr1∆) 3.46 ± 0.044.
For the sequence FELIELVTPKSFLFDVL [NUT1], the protein stability index was found to be 1.92 ± 0.25 (doa10∆), 1.08 ± 0.16 (san1∆) and 1.06 ± 0.12 (ubr1∆).
FERIMILDPQVTRFTTW [YJL039C/NUP192]: the protein stability index reads like this: (doa10∆) 1.06 ± 0.077; (pdr5∆) 1.33 ± 0.073; (san1∆) 1.22 ± 0.12; (ubr1∆) 1.23 ± 0.062.
FERLVPRGTAKLIIHRK [SMC3]: the protein stability index is, setting by setting: (doa10∆) 3.01 ± 0.12; (pdr5∆) 2.98 ± 0.12; (ubr1∆) 2.86 ± 0.03.
As for FESSSSLPFLLRHMPLA [SSN2], the protein stability index (doa10∆) worked out at 2.17 ± 0.16, the protein stability index (pdr5∆) was found to be 1.61 ± 0.17, the protein stability index (san1∆) turned out to be 2.76 ± 0.18 and the protein stability index (ubr1∆) was 1.48 ± 0.11.
With FETETEVTFKNANIFSS [FAS1], the protein stability index by setting is: (doa10∆) 3.15 ± 0.042; (pdr5∆) 3.36 ± 0.055; (san1∆) 3.35 ± 0.046; (ubr1∆) 3.35 ± 0.037.
Consider FEWDISNSDNCPEEFAE [SNF5], for which the protein stability index reads like this: (doa10∆) 3.12 ± 0.11; (pdr5∆) 3.19 ± 0.15; (san1∆) 3.11 ± 0.1; (ubr1∆) 3.29 ± 0.072.
Consider FEYEGVQDIIGNGKLSE [RPN1], for which the protein stability index was found to be 2.85 ± 0.18 (pdr5∆), 3.21 ± 0.26 (san1∆) and 2.74 ± 0.1 (ubr1∆).
Regarding FFEMLISKSLTFSQESG [RRI2], the protein stability index reads like this: (doa10∆) 2.12 ± 0.082; (pdr5∆) 1.45 ± 0.059; (san1∆) 1.25 ± 0.12; (ubr1∆) 1.66 ± 0.13.
On the same counts, the results for FFLRDTLLWNKNDKLIK [SNF5] are 2.4 ± 0.062, 2.04 ± 0.059, 2.06 ± 0.067 and 2.42 ± 0.027.
As to FFLSIYFFYASRPEYSC [YJL039C/NUP192], the protein stability index is 1.41 ± 0.056 (doa10∆), 1.35 ± 0.13 (pdr5∆), 1.19 ± 0.11 (san1∆) and 1.38 ± 0.057 (ubr1∆).
On the same counts, the results for FFTIDHFIQKLHTARKI [SIR2] are 1.75 ± 0.09, 1.71 ± 0.1, 1.11 ± 0.12 and 1.37 ± 0.12.
Taken in the same sequence, the figures for FFYNISSIHWNNWFSLP [SIN4] were 2.09 ± 0.036, 1.96 ± 0.038, 2.03 ± 0.05 and 2.13 ± 0.036.
Taken in the same sequence, the figures for FGHIDLAKPVFHVGFIA [RPO21] were 2.37 ± 0.072, 2.7 ± 0.085, 2.73 ± 0.052 and 2.63 ± 0.06.
On to FGIYILTQGINGKEVPL [MED1], for which the protein stability index stood at 1.48 ± 0.1 (doa10∆), 1.45 ± 0.068 (pdr5∆), 2.43 ± 0.14 (san1∆) and 1.38 ± 0.066 (ubr1∆).
Taken in the same sequence, the figures for FGKTGDQKETKKGESEK [YOR098C/NUP1] were 3.4 ± 0.1, 3.4 ± 0.11, 3.45 ± 0.076 and 3.35 ± 0.061.
On the same counts, the results for FHIACSVGNLEVVKSLY [NAS6] are 2.08 ± 0.078, 2.39 ± 0.068, 2.45 ± 0.056 and 2.67 ± 0.065.
Taken in the same sequence, the figures for FHIGYFKATIQILQGIC [RPO31] were 1.39 ± 0.042, 1.48 ± 0.035, 1.72 ± 0.062 and 1.54 ± 0.036.
For FIEVRNFLGDKKIRNVP [RPL9A], the protein stability index (ubr1∆) is 3.16 ± 0.12.
Consider FILTIATAFLGYCCVYG [COB], for which the protein stability index is, setting by setting: (doa10∆) 1.66 ± 0.098; (pdr5∆) 1.27 ± 0.11; (san1∆) 1.22 ± 0.22; (ubr1∆) 1.36 ± 0.072.
Taken in the same sequence, the figures for FISELCSIEPIAAKLIN [YML103C/NUP188] were 1.41 ± 0.033, 1.34 ± 0.044, 1.44 ± 0.077 and 1.35 ± 0.045.
On the same counts, the results for FITKHLPLLILENSSRS [NUT1] are 1.36 ± 0.098, 1.41 ± 0.067, 1.12 ± 0.2 and 1.14 ± 0.032.
With FKATIQILQGICKNCSA [RPO31], the protein stability index worked out at 1.69 ± 0.044 (doa10∆), 1.77 ± 0.038 (pdr5∆), 1.76 ± 0.061 (san1∆) and 1.79 ± 0.046 (ubr1∆).
